Experimental data published in patent US7910102B2 (priority 2006, dated 2011).
“Also recorded” adds a separate entry of the source.

What was measured:
human Kv1.1 = target: T1, human Kv1.1 (Homo sapiens, UniProt Q09470); format: cell-based; conditions: read-out: hKv1.1: IC50
T1 construct: expressed in transfected cells; host or cells: HEK293

human Kv1.3 [1] = target: T2, human Kv1.3 (Homo sapiens, UniProt P22001); format: cell-based
human Kv1.3 [2] = target: T2, human Kv1.3; assay: Whole cell immunoassay (ELISA) of binding to fixed HEK 293 cells overexpressing Kv1.3; design: expressed in transfected cells
Method: Our peptibody reagent can be a useful and convenient tool for monitoring Kv1.3 channel expression in patients and have utility in diagnostic applications. The procedure shown in FIG. 34A and FIG. 34B follows.
FIG. 34A. A whole cell immunoassay was performed to show binding of intact Fc-L10-ShK[1-35] to Kv1.3 transfected HEK 293 cells (BioFocus plc, Cambridge, UK). Parent HEK 293 cells or HEK Kv1.3 cells were plated at 3×10e4 cells/well in poly-D-Lysine coated ninety-six well plates (#35-4461; Becton-Dickinson, Bedford, Mass.). Cells were fixed with formalin (Sigma HT50-1-1 Formalin solution, diluted 1:1 with PBS/0.5% BSA before use) by removing cell growth medium, adding 0.2 ml/well formalin solution and incubating at room temperature for 25 minutes and then washing one time with 100 μl/well of PBS/0.5% BSA. Wells were blocked by addition of 0.3 ml/well of BSA blocker (50-61-00; KPL 10% BSA Diluent/Blocking Solution, diluted 1:1 with PBS; KPL, Gaithersburg, Md.) followed by incubation at room temperature, with shaking, for 3 hr. Plates were washed 2 times with 1×KP Wash Buffer (50-63-00; KPL). […] Absorbance was read at 450 nm on a Molecular Devices SpectroMax 340 (Sunnyvale, Calif.).
FIG. 34B. […] Absorbances were read at 405 nm after stopping reactions by addition of 0.1 ml/well of 1% SDS.

IL-2R on CD4+ T cells = format: cell-based, human
human Kv1.3 [3] = target: T2, human Kv1.3; assay: Immunohistochemistry of peptibody binding to HEK 293 cells overexpressing human Kv1.3; design: expressed in transfected cells; conditions: 5 μg/ml peptibody
Method: Immunohistochemistry analysis of Fc-L10-ShK[1-35] binding to HEK 293 cells overexpressing human Kv1.3. HEK 293 cells overexpressing human Kv1.3 (HEK Kv1.3) were obtained from BioFocus plc (Cambridge, UK) and maintained per manufacturer's recommendation. The parental HEK 293 cell line was used as a control. Cells were plated on Poly-D-Lysine 24 well plates (#35-4414; Becton-Dickinson, Bedford, Mass.) and allowed to grow to approximately 70% confluence. HEK KV1.3 were plated at 0.5×10e5 cells/well in 1 ml/well of medium. HEK 293 cells were plated at a density of 1.5×10e5 cells/well in 1 ml/well of medium. Before staining, cells were fixed with formalin (Sigma HT50-1-1 Formalin solution, diluted 1:1 with PBS/0.5% BSA before use) by removing cell growth medium, adding 0.2 ml/well formalin solution and incubating at room temperature for ten minutes. Cells were stained by incubating with 0.2 ml/well of 5 μg/ml Fc-L10-ShK[1-35] in PBS/BSA for 30′ at room temperature. Fc-L10-ShK[1-35] was aspirated and then the cells were washed one time with PBS/0.5% BSA. Detection antibody (Goat F(ab)2 anti-human IgG-phycoerythrin; Southern Biotech Associates, Birmingham, Ala.) was added to the wells at 5 μg/ml in PBS/0.5% BSA and incubated for 30′ at room temperature. Wash cells once with PBS/0.5% BSA and examine using confocal microscopy (LSM 510 Meta Confocal Microscope; Carl Zeiss AG, Germany). […]

[4] = system: T cell proliferation, human PBMCs; assay: T cell proliferation (3H-thymidine incorporation) in anti-CD3/anti-CD28 stimulated human PBMCs; format: cell-based; conditions: antibodies to CD3 and CD28
Description: Inhibition of T cell proliferation following anti-CD3 and anti-CD28 antibody stimulation of PBMCs. PBMC's were previously isolated from normal human donor Leukophoresis packs, purified by density gradient centrifugation (Ficoll Hypaque), cryopreserved in CPZ Cryopreservation Medium Complete (INCELL, MCPZF-100 plus 10% DMSO final). PBMC's were thawed (95% viability), washed, and seeded at 2×10^5 cells per well in culture medium (RPMI medium 1640; GIBCO) supplemented with 10% fetal calf serum, 100 U/ml penicillin, […] streptomycin, 2 mM L-glutamine, 100 μM non-essential amino acids, and 20 μM 2-ME) in 96-well flat-bottom tissue culture plates. Cells were pre-incubated with either anti-human CD32 (FcyRII) blocking antibody (per manufacturers instructions EASY SEP Human Biotin Selection Kit #18553, StemCell Technologies Vancouver, BC) or Fc-L10-ShK (100 nM-0.001 nM final) for 45 min. Fc-L10-ShK (100 nM-0.001 nM final) was then added to the cells containing anti-human CD32 blocking antibody while medium was added to the cells containing Fc-L10-ShK. Both sets were incubated for an additional 45 min before stimulating for 48 hr with aCD3/aCD28 (0.2 ng/ml and 100 ng/ml, respectively). Final assay volume was 200 ul. […] Cells were then harvested onto glass fiber filters and radioactivity was measured in a B-scintillation counter.

CD40L on CD4+ T cells = format: cell-based, human

T2 sequence (P22001 whole entry): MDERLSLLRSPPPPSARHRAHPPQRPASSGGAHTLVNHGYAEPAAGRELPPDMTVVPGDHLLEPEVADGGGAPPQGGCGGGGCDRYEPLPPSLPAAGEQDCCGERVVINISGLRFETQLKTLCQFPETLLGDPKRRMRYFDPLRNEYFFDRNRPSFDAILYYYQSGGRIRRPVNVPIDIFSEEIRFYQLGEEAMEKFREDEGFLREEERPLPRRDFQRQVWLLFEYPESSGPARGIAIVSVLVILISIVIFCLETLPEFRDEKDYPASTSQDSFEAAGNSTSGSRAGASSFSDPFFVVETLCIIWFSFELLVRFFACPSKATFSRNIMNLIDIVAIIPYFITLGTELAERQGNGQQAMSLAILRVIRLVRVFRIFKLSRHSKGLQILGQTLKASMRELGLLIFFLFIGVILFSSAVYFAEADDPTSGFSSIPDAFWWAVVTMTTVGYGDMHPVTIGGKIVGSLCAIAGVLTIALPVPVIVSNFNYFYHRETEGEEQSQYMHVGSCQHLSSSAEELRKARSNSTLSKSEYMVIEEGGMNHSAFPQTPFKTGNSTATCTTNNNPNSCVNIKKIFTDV
T1 sequence (Q09470 whole entry): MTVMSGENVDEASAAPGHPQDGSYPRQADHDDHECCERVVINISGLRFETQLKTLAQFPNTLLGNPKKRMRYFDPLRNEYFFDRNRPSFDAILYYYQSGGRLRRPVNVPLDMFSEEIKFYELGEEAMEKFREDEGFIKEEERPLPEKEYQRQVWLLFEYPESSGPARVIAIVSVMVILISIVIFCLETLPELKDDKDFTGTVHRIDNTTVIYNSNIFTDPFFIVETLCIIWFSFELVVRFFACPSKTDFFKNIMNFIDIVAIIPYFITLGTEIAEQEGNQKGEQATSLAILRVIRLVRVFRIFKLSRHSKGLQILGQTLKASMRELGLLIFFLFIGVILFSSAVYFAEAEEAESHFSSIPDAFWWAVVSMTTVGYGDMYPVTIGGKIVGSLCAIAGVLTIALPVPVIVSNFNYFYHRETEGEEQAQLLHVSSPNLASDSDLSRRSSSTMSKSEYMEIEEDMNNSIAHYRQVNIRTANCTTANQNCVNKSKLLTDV

Row | Substance | IC50 (human Kv1.1) | fold less potent than the synthetic OSK1 toxin peptide (human Kv1.3 [1]) | binding to fixed HEK 293 cells overexpressing Kv1.3 (in words) (human Kv1.3 [2]) | block of thapsigargin-induced upregulation of the IL-2R on T cells (in words) (IL-2R on CD4+ T cells) | staining of Kv1.3-transfected HEK 293 cells (in words) (human Kv1.3 [3]) | inhibition of T cell proliferation (in words) [4] | block of thapsigargin-induced upregulation of CD40L on T cells (in words) (CD40L on CD4+ T cells)
1 | Fc-L10-OSK1[E16K,K20D] | > 100 nM | approximately 6 fold |  |  |  |  | 
2 | Fc-L10-ShK[1-35]: Fc region of human IgG1 fused in-frame to a 10 amino acid linker and the Kv1.3 inhibitor peptide ShK[1-35]; peptibody |  |  | dose-dependent increase in response; also recorded: high affinity binding to its target | suppressed | stains HEK 293 cells stably transfected with human Kv1.3 | inhibits T cell proliferation; also recorded: blocked T cell proliferation; also recorded: potently inhibits proliferation of T cells in a dose-dependent manner | suppressed
